Measured values: the Human Domainome abundance scans (Beltran et al. 2025)
± gives the uncertainty stated by the source.

B1: Zinc finger homeobox protein 3, residues 2244 to 2299; numbered along this chain, Q15911 (parent)
chain: SSRTRFTDYQLRVLQDFFDANAYPKDDEFEQLSNLLNLPTRVIVVWFQNARQKARK

Variants of: B1
Assay: abundance fitness (aPCA) (normalised: wild type 0, dead -1); higher = more abundant; growth selection in yeast, the domain comes from the species named
Details: Homo sapiens

Row | Variant | abundance fitness
1 | SSRTRFTDYQLRVLQDFFDANAYPKDDEFEQLSNLLNLPTRVIVVWFQNKRQKARK [A50K] | -0.09 ± 0.12
2 | SDRTRFTDYQLRVLQDFFDANAYPKDDEFEQLSNLLNLPTRVIVVWFQNARQKARK [S2D] | 0.21 ± 0.11
3 | SSRTRFTDYQLRVLQDFFDANAYPKDDEFEQLSNLLNLPTRVIVVWFQNARQVARK [K53V] | -0.085 ± 0.092
4 | SSRTRFTRYQLRVLQDFFDANAYPKDDEFEQLSNLLNLPTRVIVVWFQNARQKARK [D8R] | -0.173 ± 0.099
5 | SQRTRFTDYQLRVLQDFFDANAYPKDDEFEQLSNLLNLPTRVIVVWFQNARQKARK [S2Q] | -0.093 ± 0.27
6 | SSRTRFTDYQLRVLQDFFDANAYPKDDEFEQDSNLLNLPTRVIVVWFQNARQKARK [L32D] | -0.637 ± 0.33
7 | SSRTRFTDYQLRVLQDFFDANAYPPDDEFEQLSNLLNLPTRVIVVWFQNARQKARK [K25P] | -0.228 ± 0.13
8 | SSRTRFTDYQLRVLQDFFDANAYPKDDTFEQLSNLLNLPTRVIVVWFQNARQKARK [E28T] | -0.236 ± 0.13
9 | SSRTRFTDYQLRVLQDFFDANAYPKDDEFEQLSNLRNLPTRVIVVWFQNARQKARK [L36R] | -0.748 ± 0.11
10 | SSRTRFTDYQLRVVQDFFDANAYPKDDEFEQLSNLLNLPTRVIVVWFQNARQKARK [L14V] | -0.493 ± 0.091
11 | SSRTRFTDYQLRVLQDFFDANAYPKDDEFEELSNLLNLPTRVIVVWFQNARQKARK [Q31E] | -0.066 ± 0.13
12 | SSRTRFTDYQLRVLQDFYDANAYPKDDEFEQLSNLLNLPTRVIVVWFQNARQKARK [F18Y] | 0.011 ± 0.18
13 | SSRTRFTDYQLRVLQDFFDANAYPKDDEDEQLSNLLNLPTRVIVVWFQNARQKARK [F29D] | -0.955 ± 0.22
14 | LSRTRFTDYQLRVLQDFFDANAYPKDDEFEQLSNLLNLPTRVIVVWFQNARQKARK [S1L] | -0.179 ± 0.16
15 | SSRTRFTDYQLRVLQDFFDANAYPKDDEFEQLSNLLNLPTRVIVVCFQNARQKARK [W46C] | -0.759 ± 0.2
16 | SSRTRFTDYQLRVLQDFFDANAYPKDDEFEQLSNLLNLPTRVIVVWFTNARQKARK [Q48T] | -0.168 ± 0.14
17 | SSRTRFTDYQLRVLQDFFDANAYPKDDEFEQLSNLLNLPTRVIVVWIQNARQKARK [F47I] | -0.408 ± 0.096
18 | SSRTRFTDYQLRVLQDFFDANAYPKDDEFEQLSNLLNLPTRVIVVWFANARQKARK [Q48A] | -0.146 ± 0.13
19 | SSRTRFTDYQLRVLQDFFDDNAYPKDDEFEQLSNLLNLPTRVIVVWFQNARQKARK [A20D] | -0.102 ± 0.16
20 | SSRTRFTDYQLRVLQDFFDANAYPKDDEFEQLSNLLNLPTRVIVVTFQNARQKARK [W46T] | -0.611 ± 0.18
21 | SSRTRFTDYQLRVLQDFFDANAYPKDDEFEQLSNLLNLPTRVIVVWFQRARQKARK [N49R] | -0.207 ± 0.089
22 | SSRTRFTDYQLRVLQDFFEANAYPKDDEFEQLSNLLNLPTRVIVVWFQNARQKARK [D19E] | 0.172 ± 0.23
23 | SSRTRFTDYQLRVLQDFFDANAYPKDDEFEQLSNLLNLPTRVIMVWFQNARQKARK [V44M] | -0.031 ± 0.13
24 | SSRTRFTDYQLRVLQDFFDANAYPKDDEFEQLSNLLNLPTRVIVVEFQNARQKARK [W46E] | -0.749 ± 0.13

Row | Variant | abundance fitness
25 | SSRTRFTDYQLRVLQFFFDANAYPKDDEFEQLSNLLNLPTRVIVVWFQNARQKARK [D16F] | -0.596 ± 0.26
26 | SSRTRFTDYQLRVLQDFFDANAYPKDDEFEQLSNLLNLPKRVIVVWFQNARQKARK [T40K] | 0.221 ± 0.13
27 | SSRTRFTDYQLRVLQDFFDANAYPKDDEFEQLSNLLHLPTRVIVVWFQNARQKARK [N37H] | -0.013 ± 0.16
28 | SSRTRFTCYQLRVLQDFFDANAYPKDDEFEQLSNLLNLPTRVIVVWFQNARQKARK [D8C] | -0.022 ± 0.17
29 | SSRTRFTDYQLRVLQDFFDANAGPKDDEFEQLSNLLNLPTRVIVVWFQNARQKARK [Y23G] | -0.332 ± 0.068
30 | SSRTRFTDYQLRVLQDFFDANAYPKDDEFEQLSNLLNLPTRVIVVWFQNRRQKARK [A50R] | -0.061 ± 0.079
31 | SSRTRFTDYQLRVLQDFFDANAYPKDDEFEQLSNLLNLPTRVIVDWFQNARQKARK [V45D] | 0.155 ± 0.096
32 | SSRTRFTDYQLRVLQDFFDANAYPKDDEFEQLSNLLNLFTRVIVVWFQNARQKARK [P39F] | -0.715 ± 0.12
33 | SSRTRFTDYQLRVLQDFFDANAYPKDDEFEQLSNLLNLPTRVIVQWFQNARQKARK [V45Q] | 0.046 ± 0.089
34 | SSRTRFTDYQLRFLQDFFDANAYPKDDEFEQLSNLLNLPTRVIVVWFQNARQKARK [V13F] | -0.291 ± 0.19
35 | SSRTRFTDYQLRVLQDFFDANAYPKDDEFEQLSNLLNLPTRVIVVWRQNARQKARK [F47R] | -0.941 ± 0.1
36 | SSRTRFTDYQLRVLQDFFDANAYPKDDEFEQLSNLLKLPTRVIVVWFQNARQKARK [N37K] | -0.009 ± 0.14
37 | SSRTRFTDYQLRVLQDFFDANAYPKDDEFEQLSNVLNLPTRVIVVWFQNARQKARK [L35V] | 0.041 ± 0.083
38 | SSRTRFTDYQLRVLQDFFDANAYPKDDEFECLSNLLNLPTRVIVVWFQNARQKARK [Q31C] | -0.031 ± 0.17
39 | SSRTRFTDYQLRVLQDFFDANAYPKDDEFEQLSNLLNLPTRVSVVWFQNARQKARK [I43S] | -0.845 ± 0.13
40 | SSRTRFTDYQLRVLQTFFDANAYPKDDEFEQLSNLLNLPTRVIVVWFQNARQKARK [D16T] | -0.114 ± 0.16
41 | SSRTRFTDYQLRVLQDFFDANAYPKVDEFEQLSNLLNLPTRVIVVWFQNARQKARK [D26V] | -0.055 ± 0.12
42 | SSRTRFTDYQLRRLQDFFDANAYPKDDEFEQLSNLLNLPTRVIVVWFQNARQKARK [V13R] | -0.323 ± 0.088
43 | SSRTRFTDYQLRVLQDFFDANAYPKDKEFEQLSNLLNLPTRVIVVWFQNARQKARK [D27K] | -0.113 ± 0.1
44 | SSRTRFTDYQLRVLQDFFDANAYPKDDEFEQLSNLLNLPTRVIVVWTQNARQKARK [F47T] | -0.618 ± 0.095
45 | SSRTRFTDYQLRVLQDFFDANAYPKDDVFEQLSNLLNLPTRVIVVWFQNARQKARK [E28V] | -0.142 ± 0.098
46 | SSRTRFTDYQLRVLQDFFDANAYPKDDEFEQLSNLLNLPTRVIVVWFQNARQMARK [K53M] | 0.008 ± 0.12
47 | SSRTRFTDYQLRVLQDFFTANAYPKDDEFEQLSNLLNLPTRVIVVWFQNARQKARK [D19T] | 0.046 ± 0.24
